According to patent US20070092942A1 (published 2007):

B1: EBV205 (enzyme)
chain: MSNGDWGQSQRTRGTGPVRGIRTMDVNAPGGGSGGSALRILGTASCNQAHCKFGRFAGIQCVSNCVLYLVKSFLAGRPLTSRPELDEVLDEGARLDALMRQSGILKGHEMAQLTDVPSSVVLRGGGRVHIYRSAEIFGLVLFPAQIANSAVVQSLAEVLHGSYNGVAQFILYICDIYAGAIIIETDGSFYLFDPHCQKDAAPGTP
notes: range 1-205; not shown: N-terminal His-tag from pET28
B2: EBV205 C61A (enzyme)
chain: MSNGDWGQSQRTRGTGPVRGIRTMDVNAPGGGSGGSALRILGTASCNQAHCKFGRFAGIQAVSNCVLYLVKSFLAGRPLTSRPELDEVLDEGARLDALMRQSGILKGHEMAQLTDVPSSVVLRGGGRVHIYRSAEIFGLVLFPAQIANSAVVQSLAEVLHGSYNGVAQFILYICDIYAGAIIIETDGSFYLFDPHCQKDAAPGTP
notes: range 1-205; also called EBV205 active site mutant (C61A); not shown: N-terminal His-tag from pET28

Experiments:
[1] = target: T1, HA-tagged Ub-vinylmethyl ester (UniProt P0CG47 1-75); test: 1 uM enzyme with 2 uM HAUbVME, SDS-PAGE silver stain and anti-HA immunoblot
T1 construct: also called HAUbVME; HA-UbVME

[2] = target: T1, HA-tagged Ub-vinylmethyl ester; test: HAUbVME labelling, SDS-PAGE and anti-HA immunoblot

Row | Binder | binding result [1] | binding result [2]
1 | B1 | binds | 
2 | B2 |  | no binding (tested: 2 uM HAUbVME, 1 uM enzyme)
